# Laboratory results: patent JP2010235447A (dated 2010)
# Positions count from the first letter of the chain named.
# B1: マウス抗ヒトCD36モノクローナル抗体 クローン1-3 (antibody, mouse IgG2b, V domains shown)
# VH: QAQLQQSGAELVRPGASVTLSCKASGYTFTDYEMNWVKQTPVHGLEWIGAIDPEIGGSAYNQKFKGKATLTADKSSSTAYMELRSLTSEDSAVYYCTRSKLPAWFPYWGQGTLVTVSA
# VL: EIKMTQSPSAMYASLGERVTITCKASQDINSYLSWFQQKPGKSPKTLIYRANRLVDGVPSRFSGSGSGQDYSLTISSLEFEDMGIYYCLQYEEFPYTFGGGTKLEIK
# notes: also called クローン1−3; 抗CD36抗体
# B2: マウス抗ヒトCD36モノクローナル抗体 クローン1-36 (antibody, mouse IgG2b, V domains shown)
# VH: QVQLQQSGAELVRPGASVKLSCKALNYTFTDYEMHWVKQTPVHGLEWIGGIHPGSGGTAYNQRFKGKATLTADKSSSTAYIEVSSLTSEDSAVYYCSLTTASAWFAYWGQGTLVTVSV
# VL: B1 VL with E1D, A10S, V55L, F80Y, E92D, Y96L, G100A, I106L
# notes: also called クローン1−36; 抗CD36抗体
# B3: マウス抗ヒトCD36モノクローナル抗体 クローン2-66 (antibody, mouse IgG1, V domains shown)
# VH: QVQLQQPGAELVKPGASVRMSCKASGYTFTNYNMHWVKQTPGQGLEWIGVIYPGNGDTSYSQKFKGKATLTADKSSRTGYMQLSSLTSEDSAVYYCTRSGWDDWFFDVWGAGTSVTVSS
# VL: DVLMTQTPLSLPVSLGDQASISCRSSQSIVQRNGITYLEWYQQKTGQSPKLLIYKVSNRFSGVPDRFSGSGSGTDFTLKISRVEAEDLGVYYCFQGSHVPPTFGGGTKLEIK
# notes: also called クローン2−66; 抗CD36抗体
# B4: マウス抗ヒトCD36モノクローナル抗体 クローン4-62 (antibody, mouse IgG2a, V domains shown)
# VH: QIHLVQSGPELKKPGETVKISCKASGYTFTNYGMNWVMQAPGKVLKWMGWINTYTGETTYADDFKGRFAFSLETSASTAYLQINSLKYEDTASYFCARDDGYSFYYDMDYWGQGTSVTVSS
# VL: B3 VL with Q31H, R32T, I35N, E39Q, Q42L, T45P, R82T, P101W
# notes: also called クローン4−62; 抗CD36抗体
# Biological target: T1, CD36 (CD36発現細胞; pcDNA-CD36を一過性に導入した293T細胞) (human, UniProt P16671 2-472)
# T1 construct: whole, on cells; also called ヒトCD36; CD36発現株
# T1 sequence (P16671 2-472): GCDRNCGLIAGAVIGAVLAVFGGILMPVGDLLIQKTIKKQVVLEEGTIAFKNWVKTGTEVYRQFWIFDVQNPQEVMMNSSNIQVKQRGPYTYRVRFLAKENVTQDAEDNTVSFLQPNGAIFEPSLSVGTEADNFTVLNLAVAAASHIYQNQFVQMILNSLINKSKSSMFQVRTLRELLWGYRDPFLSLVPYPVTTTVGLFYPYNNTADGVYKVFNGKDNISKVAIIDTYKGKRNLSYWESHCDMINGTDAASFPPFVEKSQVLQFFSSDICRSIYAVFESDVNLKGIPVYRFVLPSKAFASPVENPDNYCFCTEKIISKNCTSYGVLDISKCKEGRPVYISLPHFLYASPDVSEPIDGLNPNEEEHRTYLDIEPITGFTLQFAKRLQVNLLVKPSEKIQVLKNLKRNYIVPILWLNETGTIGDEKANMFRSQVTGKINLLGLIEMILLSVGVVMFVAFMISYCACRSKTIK
# Test: flow cytometry of hybridoma supernatants on CD36-expressing cells
row,Binder,binding result
1,B1,binds
2,B2,binds
3,B3,binds
4,B4,binds
